Molecular target: clathrin N-terminal domain (NTD) (UniProt Q00610)
Experiment: fluorescence polarisation + ITC

Sequence of UniProt Q00610 (Q00610 1-364): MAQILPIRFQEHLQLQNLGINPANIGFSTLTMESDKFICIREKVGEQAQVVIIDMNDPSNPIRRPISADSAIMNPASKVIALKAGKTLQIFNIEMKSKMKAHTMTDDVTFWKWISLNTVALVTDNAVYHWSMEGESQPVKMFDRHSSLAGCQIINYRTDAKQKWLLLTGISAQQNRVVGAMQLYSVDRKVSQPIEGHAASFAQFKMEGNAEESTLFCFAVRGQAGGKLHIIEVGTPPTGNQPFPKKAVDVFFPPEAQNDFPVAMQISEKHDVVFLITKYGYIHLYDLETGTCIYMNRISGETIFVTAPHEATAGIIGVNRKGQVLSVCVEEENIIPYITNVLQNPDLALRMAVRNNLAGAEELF

fold increase in affinity against the wild-type peptide: 20 fold
Substance: HURP_(832-846) phosphorylated peptide (pS839) (from UniProt Q15398 832-846)

Source: doi:10.1101/2022.06.08.495335
